A short description of the data set: soluble fraction after stress (log2 fold change); higher = more stays soluble; pooled small domains, quantitative proteomics. The settings on record: stress: 75 degC.
As for “HMQFHQDNYALEFIRDLQPVDGAIILSRFKQFDLVELEKAKKIKFSDEHMAWTLYDYDIKKIN”, the “soluble fraction (log2)” value is -1.95.

Regarding “HMQFLKPQDVLFLLKLVVLKGPASIFPAVPESLGLSKAEVHNSAKRVRGARLLPHDSWNPLRKNLLEFL”, the “soluble fraction (log2)” value is -0.488.

For the sequence “HMQFQVHEIKGKEYYIHVVEKGNTLYAISRMYSVPIETLKEENPRLNTTELTIGDRLLIPLDEVKRKNIE”, the “soluble fraction (log2)” value is -0.833.

As to “HMQFYSGLEARLMDPNTPEVFDDPISLMAFLQQKNISRVELEDNLLLPYLKEMAGQPIPKAELLEIIRK”, the “soluble fraction (log2)” value was -0.815.

For “HMQGDHELSQRILSYLSEQGGSSPLTDKASPEEIYRIFRVSKKKYKQALGNLYKSKSIIILADKIQLL”, the “soluble fraction (log2)” value is -3.2.

For “HMQGEDEILKIHEALEELAQIDARLVRVVEMRYFVGLSNQEIADSLGVTTRTVERDWEKARTFLFNALHP”, the “soluble fraction (log2)” value is -1.86.

With “HMQGISGIERSLLDALAFEPAGLDALQARTGLDTPTLQALLMGLELQGHVARLPGSLFQRLVR”, the “soluble fraction (log2)” value was -0.9.

For “HMQGVTVPDLTRVSLEEAVATISSLGLRYEISDRRSNAAFPANYVLDQAPGANTIVKPNRKVYLTVNAA”, the “soluble fraction (log2)” value was -0.162.

For “HMQGWREWDYSADLYINARVGGKIEPTENSPISRVYELDEPVSVVAFTSTRYFKLSSGDYIFAEYLSAQKV”, the “soluble fraction (log2)” value was -4.29.

Take “HMQGYELKMYVTPDTKYSVAVYDAKNEMVSYTMGFSAKAPFGQEGEVLETVKLEFDKLAVGNYELKYWI”: the “soluble fraction (log2)” value was found to be 0.258.

As for “HMQHYQFEVDEASSKKRLDVFLSENLPEISRSRLKKLIDEKRVTVNEMSRPAGYKVRVKEKIEFHIPPL”, the “soluble fraction (log2)” value was -0.718.

With “HMQIAEAESLGQRLLQQSINNIVGRDEAITEERLNRVLSQYSLTGRDELMAQIGLGNRNSSLVAKAMYDI”, the “soluble fraction (log2)” value was -0.0772.

As for “HMQIKEVDYGTFISMTEDGEIGRVEIQQQENTILFTDEDETAVYKTAMVEDDQLTQRLYDAGISFYGEE”, the “soluble fraction (log2)” value is 0.0917.

As for “HMQILVEGVEANQRLDLFLRARLTEFSRSRIQGLVKNGNVLVNGNIARQAYLVQVGDKIELDVPEPVA”, the “soluble fraction (log2)” value was -0.603.

Turning to “HMQIMVVDEADRMLDMGFIPDIERIFQLTPFTRQTLFFSATMAPEIERITDTFLHSPERIEVAR”, the “soluble fraction (log2)” value was -0.255.

For “HMQISDDGFILKIINEVVAENPKSISDYISGKEAAVGFLVGQIMKKTRGKANPKLVNEMLITELAKLKN”, the “soluble fraction (log2)” value came out at 0.0585.

“HMQISDESSIAKIADEVISEFPSQVSEFRSGKEKVLQFLIGQVMKKTKGKANPQITAKILREKLS”: the “soluble fraction (log2)” value turned out to be 0.00566.

“HMQISDSASVKTVVAEAIAANPKAVADFMNGKDTATRYLVGQVMKITKGQAKPELVNQLVLESLAELKEK”: the “soluble fraction (log2)” value was 0.361.

For “HMQISDSGELEKIVLQVIEENPKPAEQVRSGNEKAIGALVGGVMKATQGRADGGEVNRLLRQHLGL”, the “soluble fraction (log2)” value was 0.248.

Take “HMQISDVSLIAKVIDDVIDNNVKSVSDYLEGNLNVLRFLVGQVMKETKGKANPQKATELLQEKLESLNN”: the “soluble fraction (log2)” value was -0.896.

“HMQISLDTKLINLEFSVRANNVFRENQIFTLRDLTSHSKEDLMLMTNFGKTTLYEVNKKLEEHQLKLSQ”: the “soluble fraction (log2)” value is -2.43.

In the case of “HMQISNEEELEKIIENVIESNPEKVKAYQSGKSGLIGFFMGQVMKESGGQANPNLVNQILKGKL”, the “soluble fraction (log2)” value was determined as 0.109.

With “HMQIYSQEIYDAQKVLKELGLYTSDLDGLNGPGTKRALRNFQSKSGLNADGVLGPLTKSALDKGEESYITV”, the “soluble fraction (log2)” value was -0.0827.

Turning to “HMQKADFDYGDYVDLGLAMGRQSRQLREAVGIKLGIGYANSKRFYQRLQTFGISLAELKQAVEEAENDQQN”, the “soluble fraction (log2)” value was -1.12.

As to “HMQKEMDIVLQINGKMRSNLKVSSTANDDEIIKTAIESDAYKKFSLGLRIQKTIIVPNRLINIVLEK”, the “soluble fraction (log2)” value was -3.24.

“HMQKIYTIARGDTLSHIVAGTLKQQGIAYTTGELYRLVNVVAQYNDILNPNRIYTGHQLDLTPLYSED”: the “soluble fraction (log2)” value is -0.15.

Turning to “HMQKLLGPFEDFVKIKLDKYPDTKAAQMHDWLKEHYPDFPEVTPKTVYNFVMYVRQRHNIPIPD”, the “soluble fraction (log2)” value was -0.359.

For “HMQKTVLAASVYERMKERIMDQYYPPGERLNIDALAIDLAVSPTPIREALARLAAERLITFEAYKGYRVSP”, the “soluble fraction (log2)” value is -3.38.

With “HMQLEPLVTSVIPVNFAKASDISGTIKGKEVGLLSERGNITAENRTNVLIVKDIRKSVDEINAMVKRLD”, the “soluble fraction (log2)” value came out at 0.0272.

Take “HMQLFKFKNAMMELAKNKNITLDTAEKAIGLEAGFTELVARGVKELALSDVIKISKYFNTTMDSVLD”: the “soluble fraction (log2)” value was -1.44.

Turning to “HMQLPFTPREHEITQLLSRGLSNRQIAEALSLSVRTVEGHIYQASTKLGISSRSELAVLVGQFA”, the “soluble fraction (log2)” value was -1.94.

On to “HMQLSQLLQPFDINAFKGHPLYTEENVKMFNDYTNRVKEWTKGTPYEQYWVTKEGQPTMLAWDSFKK”, for which the “soluble fraction (log2)” value is -1.28.

Turning to “HMQLTQEAIENLFKITTAKKFREELEKLVVTDSEKKAFAYFTVYHPKLKELPFAILKSVENYTGISI”, the “soluble fraction (log2)” value is -0.963.

As for “HMQLVPGIGRLSARELEVFTLIGRGLGTSEIGKKLGVSAYTVQTHRNHIKEKLNLPNAAAITYWAIQWAHG”, the “soluble fraction (log2)” value was -2.27.

On to “HMQMEDTDALLQVAKEVVAENQDTVEAYLGGREKAFASLIGAAMKKTRGKANPKVIRQLILDLIQ”, for which the “soluble fraction (log2)” value stood at 0.564.

For “HMQMEISQRIKLERQTLKWTQEELADKIFVSKRTISNWETGRTVPDIESVLRLAKVFHVSLEDLLL”, the “soluble fraction (log2)” value is -4.46.

In the case of “HMQMEYEKAIAYILDKIKSGELSIGSKLPAERVIADTLHIGRNSTREALSILHGMGMVDRVHGSGNYISEH”, the “soluble fraction (log2)” value is -0.752.

Regarding “HMQMLQDPFLNALRKEHVPVSIYLVNGIKLQGQVESFDQYVVLLRNTSVTQMVYKHAISTIVPARAVSL”, the “soluble fraction (log2)” value was -0.748.

Consider “HMQMRKENKILVTDIGEIDEVKVIFDDDNKPYLYSYNGEDEFYRPDETYKFFDNKEQAEEYVREN”, for which the “soluble fraction (log2)” value is 0.0692.

Turning to “HMQMSPREKMIYSFIESHPGTKSGEIAEKLNVPLPTVKRILSEMVSGNFIAKHGSGIGTNYSTEK”, the “soluble fraction (log2)” value was found to be 0.335.

As to “HMQMSWDAVKARLQDIVNNEDKTKPFNDEMLASKLKEQGIEIARRTVVKYRQQLGIPAARLRKK”, the “soluble fraction (log2)” value is -0.752.

As for “HMQNAETPDVAAEFRTWTSADGQFQVIAKLVKLDGESVHLERQDDGRQIAVPLGKLSSEDRLFLRGVRP”, the “soluble fraction (log2)” value is -0.184.

For the sequence “HMQNEQIAFSKFLQEVDSGRVVQVEIQGNNIKGILSDGSKFYTYSPNYPELVGKLSEKGVNIVASPVE”, the “soluble fraction (log2)” value was 0.196.

Regarding “HMQNFLSITSKEKIDIGNFQLISFKFENNLYDYVISGNKSELLIFQEKTIENNNENIEKITSNF”, the “soluble fraction (log2)” value is -2.54.

Regarding “HMQNLETVEEIKELALNYLDKYQPSKKSLQVYLFRKAIDAQSNSVEKSEILKKIETVLTDLEEQGILNDAL”, the “soluble fraction (log2)” value is -0.135.

With “HMQNMVYVATKDIPAGGVIDQDSVSKTAISTSIDTSLYITDDDLGKIAVVNISQGQSVFSNMVGT”, the “soluble fraction (log2)” value came to 0.656.

“HMQNNITISKEIELRTGPDDTYPTLKKVTAGDNVEMLSKSDTWYEIKTNDSFVGWVPGWSIL”: the “soluble fraction (log2)” value is -0.0886.

“HMQNSYSVEDLALKAGLSVDTIRYYQGLDLIAPPQKNGRRAIYGDEHLSRLDEIKKLALEGFSLRQISLLK”: the “soluble fraction (log2)” value is -0.739.

On to “HMQNYNLTQQEKKVLQLLVSGKSYKMIAAELNVAFDTVKSHITNIYSKLHVHSGTEAVSVAIRDKI”, for which the “soluble fraction (log2)” value is -1.46.

For “HMQPDDELVRLLLIKIFNDKQLKVNPAVINYLLRRIDRSFESINNFVKKIDEFSLEKGRKITVNLVSGFF”, the “soluble fraction (log2)” value is -0.777.

As to “HMQPFTELTPREREILGHLAEGQSNKVIARHLDISDGTVKLHVKAILRKLGVHSRVEAAVMAVEHGIR”, the “soluble fraction (log2)” value is -2.11.

Turning to “HMQPIEIQDRITKAFERSAALEAKNINVEVDGHTVKLTGTVHSLTEKEEARKAAFFAPGVTKVENHLIVDY”, the “soluble fraction (log2)” value was 0.0424.

As to “HMQPMIQIHTLANHAPVALHIKRNTQRNIIIRARDASSLNLSIPKWFSPAQLQNWLRDNEATLIRILQQAP”, the “soluble fraction (log2)” value is -3.6.

Regarding “HMQPPKIISTVEPYREVVREYLKQGVEMTAIWQRLRENYQYTGSYSSVRRFVAQLEPRQPEA”, the “soluble fraction (log2)” value is -1.9.

On to “HMQPQLFRVIADDGLNIRSGPGPEYPPVAPMLRKGTQVELLQAGDRWSKVEVVGSTDVEGWVNQRYLQAV”, for which the “soluble fraction (log2)” value is -0.169.

Turning to “HMQPSQTLSATVEFPDRLDRFLALAFPEVSRARFQRLIAEGHVSVEGVPATEIRHKLKAGQRVEAVIPPA”, the “soluble fraction (log2)” value is -0.276.

“HMQPTVEGLMKALETMTFNERTALALHYGLTGRQPMTFMAIGRYLGISDGRAEALVNSAIRKLR”: the “soluble fraction (log2)” value was -1.8.

“HMQQGVEQLPVTEVGGRLMHYYEVQPKETLYSLSHKLGVGQEYIEQHNPSVRGGLRAFMTLYFPAA”: the “soluble fraction (log2)” value was -0.00835.

“HMQQIAVDLSEFKPRLMRDMSSMLAGLYTHDLDLSSLDFSKVANFTFMFRGAIITGTLKMPKI”: the “soluble fraction (log2)” value is 0.202.

On to “HMQQLDDDTVAYVADNGIAVKSKNGKELSVDTSGLSYDIIMDMFRNLPRNGDFFSSKYWSDNIQKAQAR”, for which the “soluble fraction (log2)” value is 0.447.

On to “HMQQLIEFSVTKGHPWINKKIMDLNLPENQLILTIQREGHVVSAEGKTIILENDRITISTDDR”, for which the “soluble fraction (log2)” value was -1.26.

As for “HMQQPVVVQQNQTVRVVTGGPGFQVANEGRALNNGLAGQVVQVRLGNGQIISGIARAGGIVEIL”, the “soluble fraction (log2)” value was -0.017.

For the sequence “HMQQSQLDDIKSVVGGDEGYNKLREWTQANVPDETLKAFDKILDTQDPTMIKVAVEGFAAQMRQAE”, the “soluble fraction (log2)” value is -0.232.

As to “HMQQTAEDWKNKGDSLTAQSEYVEAIAAYDEAIRLDPNYAPAWSNKGNALKNLGEYYKAIQAYDEAIRL”, the “soluble fraction (log2)” value is 0.104.

For the sequence “HMQQYLDAYDKALAFGIAMNKLPSYENLTLDDKEDVDKLKEIYDGMSNYEKTFVAKDFTDKLDRYVKRIE”, the “soluble fraction (log2)” value came to 0.347.

Consider “HMQRADYLILYYIKMQAEQHPDSKVYLADLAAVMGLKVTELSKAVEKLQDNGFVAWKTDREAGRTYVELS”, for which the “soluble fraction (log2)” value is -3.13.

As to “HMQRIFIDNHDRILYYSNPAGYIAGKEAVVDTMFQTQELERFLQKQSLSIRWEDGVYDRLLLGQ”, the “soluble fraction (log2)” value is -0.0579.

Regarding “HMQRRHESTPIPADFDYAAVRGLSAEVQQKLERVRPLSIGQAQRIPGMTPAAISLLLVHLERQRRSRV”, the “soluble fraction (log2)” value was -1.24.

As for “HMQRSVKNNDTVQVHYTGKLTNGQIFDSSIDKQPLEFQLGQGQIIPGFEKGLIDMTVSEKKTITIPEAEAY”, the “soluble fraction (log2)” value came out at 0.193.

For “HMQSAEMTLDREGQPVQVRVELTGNEARITFLSDQEQTREALDAGMAQLRELLEQQGMVLAGVTV”, the “soluble fraction (log2)” value was -0.00816.

For the origin of these results see the domain aggregation screens of Martell et al. (2025).
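Note: 20 min heating vs room temperature control held 20 min.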
